Results: publication PMC6938703 (Science Advances, 2020)

Tests used:
crystal structure = target: the molecule itself; assay: crystal structure
SEC-MALS = target: the molecule itself; assay: SEC-MALS

B1: Selenomethionine-substituted dARC1 CA (residues S39 to N205) (domain or fragment, D. melanogaster)
chain: SRGKGNFSACTHSFGGTRDHDVVEEFIGNIETYKDVEGISDENALKGISLLFYGMASTWWQGVRKEATTWKEAIALIREHFSPTKPAYQIYMEFFQNKQDDHDPIDTFVIQKRALLAQLPSGRHDEETELDLLFGLLNIKYRKHISRHSVHTFKDLLEQGRIIEHNNPLE
modifications: selenomethionine in place of methionine
binding result (crystal structure): binds

B2: dARC1 CA F133A (domain or fragment, D. melanogaster)
chain: SRGKGNFSACTHSFGGTRDHDVVEEFIGNIETYKDVEGISDENALKGISLLFYGMASTWWQGVRKEATTWKEAIALIREHFSPTKPAYQIYMEFAQNKQDDHDPIDTFVIQKRALLAQLPSGRHDEETELDLLFGLLNIKYRKHISRHSVHTFKDLLEQGRIIEHNNPLE
binding result (SEC-MALS): binds
